The target of data set [1] is T1, CbFic2 (Coxiella burnetii, UniProt Q83DB6 1-378). Kind of data set: fluorescence anisotropy; Hill 1.354. As to conditions: protein: recombinant; tags: N-terminal G-H-M remnant after TEV cleavage; label: 5'-FITC on one strand. (Polarisation of emitted light reports the rotation of a fluorescent probe.)
The target of another data set is TS-CbFic2 (Coxiella burnetii, UniProt Q83DB6 1-378). As to the kind of experiment: fluorescence anisotropy; Hill 1.082. The settings on record: protein: recombinant; tags: N-terminal Twin-Strep + EK site (G-H-M-TS-G-A-EK-H-M); label: 5'-FITC on one strand.
In data set [2] the target is T1, CbFic2. As to the kind of experiment: fluorescence anisotropy; Hill 0.772. The settings on record: protein: recombinant; tags: N-terminal G-H-M remnant after TEV cleavage; label: 5'-FITC on one strand.
The target in data set [3] is T1, CbFic2. Kind of data set: circular dichroism. As to conditions: protein: recombinant; tags: N-terminal G-H-M remnant after TEV cleavage; blunt, self-complementary, 2 copies. In general terms: Circular dichroism is the unequal absorption of left and right circularly polarised light.
Data set [4] concerns the target T1, CbFic2. As to the kind of experiment: fluorescence anisotropy; Hill 0.988. The settings on record: protein: recombinant; tags: N-terminal G-H-M remnant after TEV cleavage; label: 5'-FITC on one strand.

B1: 5'-FITC 20 bp dsDNA (40% GC) (dsDNA)
DNA 1: AGTTTAGTGCGCTAATCTGA
DNA 2: TCAGATTAGCGCACTAAACT
What is called Kd is a measure of binding affinity in units of concentration. In the case of B1, the Kd with CbFic2 [1] amounted to 220 nM; in the data set with TS-CbFic2 it was 116 nM.

B2: 5'-FITC 40 bp dsDNA (dsDNA)
DNA 1: TTGATTACCGTCAGTTGGAGCCCATATTATACATGAAGAC
DNA 2: GTCTTCATGTATAATATGGGCTCCAACTGACGGTAATCAA
In the case of B2, in the data set with CbFic2 [2], the Kd came to 108 nM.

B3: d(CG)10 duplex, 100% GC (dsDNA)
DNA 1: CGCGCGCGCGCGCGCGCGCG
DNA 2: CGCGCGCGCGCGCGCGCGCG
Take B3: the binding result in the data set with CbFic2 [3] is “binds”.

B4: 5'-FITC 60 bp dsDNA (dsDNA)
DNA 1: TCACTCAAGAAGCAGACACAGTAAGACACGGTTTAGCTGATTGTTTATCGATTAGGTCAA
DNA 2: TTGACCTAATCGATAAACAATCAGCTAAACCGTGTCTTACTGTGTCTGCTTCTTGAGTGA
With B4, in the data set with CbFic2 [4], the Kd worked out at 36.5 nM.

The values above are taken from PMC10628234.
